{"source": "patent US11312773B2", "about": "“Anti-PD-L1 antibody” (Fuso Pharmaceutical Industries, Ltd., priority 2016, dated 2022)", "molecules": {"B1": {"name": "c4G12: rat-canine chimeric anti-PD-L1 antibody, 4G12 variable regions, canine IgG-D/Lambda constant regions; light chain SEQ ID NO: 9, heavy chain SEQ ID NO: 10 (antibody)", "heavy": "MGWSQIILFLVAAATCVHSQVQLQQSGAELVKPGSSVKISCKASGYTFTSNFMHWVKQQPGNGLEWIGWIYPEYGNTKYNQKFDGKATLTADKSSSTAYMQLSSLTSEDSAVYFCASEEAVISLVYWGQGTLVTVSSASTTAPSVFPLAPSCGSTSGSTVALACLVSGYFPEPVTVSWNSGSLTSGVHTFPSVLQSSGLYSLSSTVTVPSSRWPSETFTCNVVHPASNTKVDKPVPKESTCKCISPCPVPESLGGPSVFIFPPKPKDILRITRTPEITCVVLDLGREDPEVQISWFVDGKEVHTAKTQPREQQFNSTYRVVSVLPIEHQDWLTGKEFKCRVNHIGLPSPIERTISKARGQAHQPSVYVLPPSPKELSSSDTVTLTCLIKDFFPPEIDVEWQSNGQPEPESKYHTTAPQLDEDGSYFLYSKLSVDKSRWQQGDTFTCAVMHEALQNHYTDLSLSHSPGK", "light": "MESQTHVLISLLLSVSGTYGDIAITQSPSSVAVSVGETVTLSCKSSQSLLYSENQKDYLGWYQQKPGQTPKPLIYWATNRHTGVPDRFTGSGSGTDFTLIISSVQAEDLADYYCGQYLVYPFTFGPGTKLELKQPKASPSVTLFPPSSEELGANKATLVCLISDFYPSGVTVAWKASGSPVTQGVETTKPSKQSNNKYAASSYLSLTPDKWKSHSSFSCLVTHEGSTVEKKVAPAECS", "modifications": "chimeric H chain; chimeric L chain"}}, "key": {"[1]": {"test_system": "canine CD80/PD-L1 binding", "assay": "Canine CD80/PD-L1 binding inhibition ELISA (cCD80-Ig immobilized, cPD-L1-Ig)", "conditions": "antibody 0, 2.5, 5 and 10 μg/ml", "experimental": "Using the canine PD-1-Ig, PD-L1-Ig and CD80-Ig (described above), anti-PD-L1 antibody was tested for its ability to inhibit canine PD-1/PD-L1 binding and CD80/PD-L1 binding. Briefly, canine PD-1-Ig or CD80-Ig was immobilized on flat-bottom 96-well plates."}, "oral melanoma": {"test_system": "oral melanoma", "assay": "Clinical trials in dogs with oral melanoma (Clinical Trials 1, 3, 4)", "type": "in vivo, dog", "experimental": "Briefly, tumor tissue samples fixed with formaldehyde and embedded in paraffin were sliced into 4 μm thick sections with a microtome, attached to and dried on silane-coated slide glass (Matsunami Glass) and deparaffinized with xylene/alcohol. While the resultant sections were soaked in citrate buffer [citric acid (Wako Pure Chemical) 0.37 g, trisodium citrate dihydrate (Kishida Chemical) 2.4 g, distilled water 1000 ml], antigen retrieval treatment was performed for 10 min with microwave, followed by staining using a Nichirei automatic immuno-staining device. As pretreatment, sample sections were soaked in 0.3% hydrogen peroxide-containing methanol solution at room temperature for 15 min and washed with PBS. Then, anti-bovine PD-L1 monoclonal antibody was added and reaction was conducted at room temperature for 30 min. After washing with PBS, histofine simple stain MAX-PO (Rat) (Nichirei Bioscience) was added and reaction was carried at room temperature for 30 min, followed by coloring with 3,3′-diaminobenzidine tetrahydrocholride and observation with a light microscope. Dogs with oral melanoma or undifferentiated sarcoma in which tumor cells were PD-L1 positive were used in the following inoculation test (clinical trial).\nWith respect to the rat-canine chimeric anti-PD-L1 antibody c4G12 to be inoculated into dogs in the clinical trial, the culture supernatant obtained by the procedures described in 2.8 above was purified by affinity chromatography using MabSelect SuRe LX (GE Healthcare) and then by hydroxyapatite chromatography using BioScale CHT20-I prepacked column (Bio-Rad) in order to remove contaminants and polymeric proteins. Aggregate-containing fractions were further purified by anion exchange chromatography using HiScreen Q-Sepharose HP prepacked column (GE Healthcare).\n(1) Safety Test: The established rat-canine chimeric anti-PD-L1 antibody c4G12 was administered intravenously into a dog (beagle, spayed female, 13-year-old, about 10 kg in body weight) at 2 mg/kg, every 2 weeks, 3 times in total. […] (2) Clinical Trial 1: The established rat-canine chimeric anti-PD-L1 antibody c4G12 was administered intravenously into a PD-L1 positive dog with relapsed oral melanoma (FIG. 9A) (miniature dachshund, male, 11-year-old, about 7.5 kg in body weight) at 2 mg/kg or 5 mg/kg, every 2 weeks, 22 times in total."}, "canine PBMCs": {"test_system": "canine PBMCs", "assay": "Canine immune cell activation: SEB-stimulated PBMCs, cytokine ELISA and EdU uptake", "type": "cell-based", "conditions": "SEB stimulation"}, "[2]": {"target": "T1, canine PD-1/PD-L1 binding (Canis lupus familiaris, UniProt A0A8I3P7C4)", "T1 construct": "made in house; host or cells: Expi293F", "T1 sequence (A0A8I3P7C4 19-237)": "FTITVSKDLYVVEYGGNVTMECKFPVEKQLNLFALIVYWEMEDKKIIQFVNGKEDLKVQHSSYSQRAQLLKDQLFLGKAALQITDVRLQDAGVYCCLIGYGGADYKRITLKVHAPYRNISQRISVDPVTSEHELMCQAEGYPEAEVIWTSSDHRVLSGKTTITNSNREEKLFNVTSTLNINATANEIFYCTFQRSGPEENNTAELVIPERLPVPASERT", "assay": "Canine PD-1/PD-L1 binding inhibition ELISA (cPD-1-Ig immobilized, biotinylated cPD-L1-Ig)", "conditions": "antibody 0, 2.5, 5 and 10 μg/ml", "experimental": "Briefly, canine PD-1-Ig (prepared in 2.4 above) was immobilized on flat bottomed 96-well plates and blocked with 1% BSA and 0.05% Tween 20-containing PBS. […] The binding of cPD-L1-Ig to cPD-1-Ig was measured by color reaction using Neutravidin-HRP (Thermo Fisher Scientific) and TMB one component substrate (Bethyl Laboratories).\nBriefly, heavy chain and light chain variable region genes were identified from hybridomas producing rat anti-bovine PD-L1 monoclonal antibodies 4G12 and 6G7. Further, the heavy chain and light chain variable region genes of the above rat antibodies were linked to the constant region of heavy chain IgG4 and the constant region of light chain Lambda of a known canine antibody, respectively, to prepare nucleotide sequences, followed by codon optimization (SEQ ID NOS: 9 and 10 (amino acid sequences), SEQ ID NOS: 19 and 20 (nucleotide sequences after codon optimization). Then, synthesis of genes was performed so that NotI restriction enzyme recognition site. KOZAK sequence, chimeric antibody's light chain sequence, poly-A addition signal sequence (PABGH), promoter sequence (PCMV), SacI restriction enzyme recognition site, intron sequence (INRBG), KOZAK sequence, chimeric antibody's heavy chain sequence and XbaI restriction enzyme recognition site would be located in this order. […]"}}, "data": [{"molecule": "B1", "values": [{"measurement": "Inhibitory activity against canine CD80/PD-L1 binding", "setting": "[1]", "value": "reduced the amounts of binding"}, {"measurement": "Criterion of PR (30% or more reduction in longest tumor diameter vs baseline)", "setting": "oral melanoma; Clinical Trial 1", "value": "satisfied at weeks 16-20 and at week 34 and thereafter"}, {"measurement": "Metastases to lymph nodes or the lung", "setting": "oral melanoma; Clinical Trial 1, observation period of 44 weeks", "value": "no metastases to lymph nodes or the lung were observed"}, {"measurement": "Pulmonary metastatic lesions at week 18", "setting": "oral melanoma; Clinical Trial 3, primary lesion removed by surgery, 2 or 5 mg/kg i.v. every 2 weeks, 9 times", "value": "a plurality of pulmonary metastatic lesions disappeared"}, {"measurement": "Tumor size during observation period", "setting": "oral melanoma; Clinical Trial 4, 4 dogs with pulmonary metastasis, 2 or 5 mg/kg i.v. every 2 weeks", "value": "no clear reduction in tumor size"}, {"measurement": "IFN-γ production from canine PBMCs", "setting": "canine PBMCs; 3 days, ELISA", "value": "increased"}, {"measurement": "IL-2 production from canine PBMCs", "setting": "canine PBMCs; 3 days, ELISA", "value": "increased"}, {"measurement": "EdU uptake in canine CD4+ and CD8+ lymphocytes (cell proliferation)", "setting": "canine PBMCs; EdU added at day 2, flow cytometry", "value": "enhanced"}, {"measurement": "Inhibitory activity against canine PD-1/PD-L1 binding", "setting": "[2]", "value": "reduced the amounts of binding"}]}]}
